B1: Polycystin-2 (Homo sapiens), Q13563 (parent)
chain: MVNSSRVQPQQPGDAKRPPAPRAPDPGRLMAGCAAVGASLAAPGGLCEQRGLEIEMQRIRQAAARDPPAGAAASPSPPLSSCSRQAWSRDNPGFEAEEEEEEVEGEEGGMVVEMDVEWRPGSRRSAASSAVSSVGARSRGLGGYHGAGHPSGRRRRREDQGPPCPSPVGGGDPLHRHLPLEGQPPRVAWAERLVRGLRGLWGTRLMEESSTNREKYLKSVLRELVTYLLFLIVLCILTYGMMSSNVYYYTRMMSQLFLDTPVSKTEKTNFKTLSSMEDFWKFTEGSLLDGLYWKMQPSNQTEADNRSFIFYENLLLGVPRIRQLRVRNGSCSIPQDLRDEIKECYDVYSVSSEDRAPFGPRNGTAWIYTSEKDLNGSSHWGIIATYSGAGYYLDLSRTREETAAQVASLKKNVWLDRGTRATFIDFSVYNANINLFCVVRLLVEFPATGGVIPSWQFQPLKLIRYVTTFDFFLAACEIIFCFFIFYYVVEEILEIRIHKLHYFRSFWNCLDVVIVVLSVVAIGINIYRTSNVEVLLQFLEDQNTFPNFEHLAYWQIQFNNIAAVTVFFVWIKLFKFINFNRTMSQLSTTMSRCAKDLFGFAIMFFIIFLAYAQLAYLVFGTQVDDFSTFQECIFTQFRIILGDINFAEIEEANRVLGPIYFTTFVFFMFFILLNMFLAIINDTYSEVKSDLAQQKAEMELSDLIRKGYHKALVKLKLKKNTVDDISESLRQGGGKLNFDELRQDLKGKGHTDAEIEAIFTKYDQDGDQELTEHEHQQMRDDLEKEREDLDLDHSSLPRPMSSRSFPRSLDDSEEDDDEDSGHSSRRRGSISSGVSYEEFQVLVRRVDRMEHSIGSIVSKIDAVIVKLEIMERAKLKRREVLGRLLDGVAEDERLGRDSEIHREQMERLVREELERWESDDAASQISHGLGTPVGLNGQPRPRSSRPSSSQSTEGMEGAGGNGSSNVHV

In one assay the parent is B1. Conditions: with TRPC1, P48995-2.
Sequence of TRPC1, P48995-2 (P48995 other isoform, or with tags, fused parts or gaps): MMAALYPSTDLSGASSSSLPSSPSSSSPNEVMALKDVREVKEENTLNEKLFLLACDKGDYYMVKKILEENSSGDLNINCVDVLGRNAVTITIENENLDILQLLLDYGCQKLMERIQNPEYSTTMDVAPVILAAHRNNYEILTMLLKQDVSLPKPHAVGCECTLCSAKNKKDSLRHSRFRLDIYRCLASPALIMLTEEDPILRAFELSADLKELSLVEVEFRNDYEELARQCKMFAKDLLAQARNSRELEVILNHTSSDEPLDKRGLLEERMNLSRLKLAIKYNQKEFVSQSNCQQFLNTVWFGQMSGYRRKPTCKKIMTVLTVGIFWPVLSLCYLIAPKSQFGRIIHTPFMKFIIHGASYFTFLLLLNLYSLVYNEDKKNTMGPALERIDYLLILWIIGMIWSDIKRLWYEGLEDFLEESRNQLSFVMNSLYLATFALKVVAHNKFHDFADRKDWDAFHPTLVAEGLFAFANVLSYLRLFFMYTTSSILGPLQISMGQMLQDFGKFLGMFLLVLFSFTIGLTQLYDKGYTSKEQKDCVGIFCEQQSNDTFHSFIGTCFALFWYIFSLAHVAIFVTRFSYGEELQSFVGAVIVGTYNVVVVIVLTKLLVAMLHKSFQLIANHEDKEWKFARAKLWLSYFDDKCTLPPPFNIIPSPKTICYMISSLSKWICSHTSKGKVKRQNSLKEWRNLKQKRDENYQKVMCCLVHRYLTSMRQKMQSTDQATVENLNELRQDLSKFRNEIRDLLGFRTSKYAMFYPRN
On to D886A, for which the “effect of a mutation on the interaction” value is “disrupting interaction”.

Variants of B1 are the subject of a further assay. Conditions: with pkd1_human PKD1, P98161.
Sequence of pkd1_human PKD1, P98161 (P98161 whole entry, looked up): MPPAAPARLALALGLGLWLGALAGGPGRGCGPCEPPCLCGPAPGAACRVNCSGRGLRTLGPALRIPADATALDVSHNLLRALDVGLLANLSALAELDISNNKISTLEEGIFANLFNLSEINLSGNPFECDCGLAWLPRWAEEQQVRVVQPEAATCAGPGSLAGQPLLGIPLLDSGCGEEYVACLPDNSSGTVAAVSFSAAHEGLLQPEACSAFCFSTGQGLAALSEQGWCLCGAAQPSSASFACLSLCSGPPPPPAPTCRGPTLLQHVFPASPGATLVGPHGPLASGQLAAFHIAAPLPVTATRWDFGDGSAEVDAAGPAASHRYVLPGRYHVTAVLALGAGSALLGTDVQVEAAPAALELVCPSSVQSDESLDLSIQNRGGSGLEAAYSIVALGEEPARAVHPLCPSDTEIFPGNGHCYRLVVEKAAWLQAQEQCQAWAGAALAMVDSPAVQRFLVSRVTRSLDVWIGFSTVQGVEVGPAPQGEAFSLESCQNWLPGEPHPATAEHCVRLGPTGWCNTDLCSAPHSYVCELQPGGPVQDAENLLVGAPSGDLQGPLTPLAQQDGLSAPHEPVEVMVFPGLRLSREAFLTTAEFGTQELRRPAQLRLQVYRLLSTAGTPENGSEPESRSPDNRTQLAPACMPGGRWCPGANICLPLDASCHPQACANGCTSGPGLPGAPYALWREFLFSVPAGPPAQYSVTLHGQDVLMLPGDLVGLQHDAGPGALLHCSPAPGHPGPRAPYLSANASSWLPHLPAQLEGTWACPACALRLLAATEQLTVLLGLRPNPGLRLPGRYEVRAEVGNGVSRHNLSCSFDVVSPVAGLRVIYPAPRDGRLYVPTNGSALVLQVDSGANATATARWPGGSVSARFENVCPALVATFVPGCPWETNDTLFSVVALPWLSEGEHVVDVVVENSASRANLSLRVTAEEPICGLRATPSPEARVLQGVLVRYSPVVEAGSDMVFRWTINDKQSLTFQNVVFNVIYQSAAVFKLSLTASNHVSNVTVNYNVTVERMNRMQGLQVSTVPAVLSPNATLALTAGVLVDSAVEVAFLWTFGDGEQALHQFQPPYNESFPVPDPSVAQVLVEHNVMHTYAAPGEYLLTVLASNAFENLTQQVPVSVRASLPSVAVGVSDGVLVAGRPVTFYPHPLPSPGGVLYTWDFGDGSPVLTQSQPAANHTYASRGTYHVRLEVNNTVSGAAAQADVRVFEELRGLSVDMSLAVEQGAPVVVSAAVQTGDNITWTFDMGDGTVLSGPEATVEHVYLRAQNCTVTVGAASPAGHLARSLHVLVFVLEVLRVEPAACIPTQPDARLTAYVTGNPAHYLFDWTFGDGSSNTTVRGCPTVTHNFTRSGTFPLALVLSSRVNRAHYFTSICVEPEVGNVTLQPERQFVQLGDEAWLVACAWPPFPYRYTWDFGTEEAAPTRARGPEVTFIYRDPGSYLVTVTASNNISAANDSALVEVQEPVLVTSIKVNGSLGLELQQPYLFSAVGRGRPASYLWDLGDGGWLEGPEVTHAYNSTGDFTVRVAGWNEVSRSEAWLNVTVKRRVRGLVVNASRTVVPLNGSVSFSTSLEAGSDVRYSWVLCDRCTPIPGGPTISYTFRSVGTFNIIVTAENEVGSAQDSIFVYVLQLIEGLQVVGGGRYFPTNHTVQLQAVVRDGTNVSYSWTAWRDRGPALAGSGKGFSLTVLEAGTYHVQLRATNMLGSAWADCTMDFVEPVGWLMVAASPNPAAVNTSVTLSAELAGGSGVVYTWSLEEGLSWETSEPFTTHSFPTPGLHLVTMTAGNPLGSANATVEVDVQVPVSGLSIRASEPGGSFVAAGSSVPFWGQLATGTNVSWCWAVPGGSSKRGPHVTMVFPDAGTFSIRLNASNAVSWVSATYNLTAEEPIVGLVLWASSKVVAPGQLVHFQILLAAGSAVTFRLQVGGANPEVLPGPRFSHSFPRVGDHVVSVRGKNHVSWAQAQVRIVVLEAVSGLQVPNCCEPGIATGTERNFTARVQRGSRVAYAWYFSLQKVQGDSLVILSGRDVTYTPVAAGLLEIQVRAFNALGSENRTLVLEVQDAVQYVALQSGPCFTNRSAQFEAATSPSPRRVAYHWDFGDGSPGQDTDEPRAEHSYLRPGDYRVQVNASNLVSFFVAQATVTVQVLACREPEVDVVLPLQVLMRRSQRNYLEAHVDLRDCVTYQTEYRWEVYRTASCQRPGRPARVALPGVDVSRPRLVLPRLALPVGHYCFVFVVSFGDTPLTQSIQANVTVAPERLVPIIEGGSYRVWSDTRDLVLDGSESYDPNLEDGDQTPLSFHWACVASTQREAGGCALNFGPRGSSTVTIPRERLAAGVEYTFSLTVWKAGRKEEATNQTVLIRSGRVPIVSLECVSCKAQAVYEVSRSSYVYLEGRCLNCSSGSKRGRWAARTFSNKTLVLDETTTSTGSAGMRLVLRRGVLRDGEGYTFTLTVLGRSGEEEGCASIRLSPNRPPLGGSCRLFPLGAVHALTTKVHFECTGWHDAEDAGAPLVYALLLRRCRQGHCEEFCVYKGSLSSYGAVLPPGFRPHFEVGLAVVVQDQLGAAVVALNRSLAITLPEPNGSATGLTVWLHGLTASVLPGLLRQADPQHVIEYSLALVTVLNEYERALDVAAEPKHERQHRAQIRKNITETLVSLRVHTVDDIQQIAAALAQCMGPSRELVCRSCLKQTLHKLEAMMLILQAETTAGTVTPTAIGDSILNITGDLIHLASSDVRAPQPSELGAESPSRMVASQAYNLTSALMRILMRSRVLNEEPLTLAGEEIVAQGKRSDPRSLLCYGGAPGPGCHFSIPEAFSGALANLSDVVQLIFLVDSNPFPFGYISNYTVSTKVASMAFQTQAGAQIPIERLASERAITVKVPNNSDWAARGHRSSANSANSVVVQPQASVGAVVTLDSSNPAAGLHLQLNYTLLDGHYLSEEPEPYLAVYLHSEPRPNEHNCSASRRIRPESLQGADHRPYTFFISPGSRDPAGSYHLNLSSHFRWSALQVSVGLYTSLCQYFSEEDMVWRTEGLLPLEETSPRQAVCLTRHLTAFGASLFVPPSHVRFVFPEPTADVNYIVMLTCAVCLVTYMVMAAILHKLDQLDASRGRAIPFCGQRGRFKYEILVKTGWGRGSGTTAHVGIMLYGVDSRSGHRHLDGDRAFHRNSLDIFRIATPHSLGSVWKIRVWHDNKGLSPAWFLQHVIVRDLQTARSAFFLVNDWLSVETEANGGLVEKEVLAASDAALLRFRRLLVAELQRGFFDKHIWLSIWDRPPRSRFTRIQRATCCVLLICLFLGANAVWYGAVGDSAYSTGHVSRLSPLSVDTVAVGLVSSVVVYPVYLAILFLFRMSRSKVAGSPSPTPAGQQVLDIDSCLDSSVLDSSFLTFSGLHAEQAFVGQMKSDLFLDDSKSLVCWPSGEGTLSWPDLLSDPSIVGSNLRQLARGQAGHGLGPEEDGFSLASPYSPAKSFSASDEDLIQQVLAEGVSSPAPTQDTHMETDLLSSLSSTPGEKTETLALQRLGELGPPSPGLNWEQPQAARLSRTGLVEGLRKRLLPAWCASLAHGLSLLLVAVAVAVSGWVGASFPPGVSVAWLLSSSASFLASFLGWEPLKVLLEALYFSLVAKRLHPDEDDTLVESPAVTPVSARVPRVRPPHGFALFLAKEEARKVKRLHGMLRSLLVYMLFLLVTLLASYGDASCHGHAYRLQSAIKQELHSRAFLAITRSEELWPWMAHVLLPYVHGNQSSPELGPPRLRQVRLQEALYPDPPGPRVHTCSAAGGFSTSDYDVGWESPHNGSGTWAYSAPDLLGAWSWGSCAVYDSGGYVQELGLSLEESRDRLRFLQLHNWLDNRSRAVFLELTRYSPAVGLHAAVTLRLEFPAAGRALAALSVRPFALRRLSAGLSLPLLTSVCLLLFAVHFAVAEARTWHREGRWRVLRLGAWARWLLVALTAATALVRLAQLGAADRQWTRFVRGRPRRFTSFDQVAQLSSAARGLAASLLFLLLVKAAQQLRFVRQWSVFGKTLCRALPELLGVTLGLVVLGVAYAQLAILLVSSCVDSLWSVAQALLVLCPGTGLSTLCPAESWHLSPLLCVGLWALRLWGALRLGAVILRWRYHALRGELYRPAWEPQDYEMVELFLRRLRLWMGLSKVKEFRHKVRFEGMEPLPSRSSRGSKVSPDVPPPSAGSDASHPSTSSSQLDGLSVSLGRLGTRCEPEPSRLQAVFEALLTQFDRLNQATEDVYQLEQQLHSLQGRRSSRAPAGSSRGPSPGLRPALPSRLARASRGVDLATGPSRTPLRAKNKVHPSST
With L884H, the “effect of a mutation on the interaction” value was “disrupting interaction”.

The values are drawn from IntAct's records for PubMed 10097141.
